Reference: patent US10870693B2, “Therapeutic combination and methods of treatment with a DLL4 antagonist and an anti-hypertensive agent” (OncoMed Pharmaceuticals, Inc., priority 2009, dated 2020)
Structures can show the parent of a compound that is named as a salt.

Assays:
[1] = Phase 1 study of OMP-21M18: blood pressure readings and anti-hypertensive treatment of individual subjects
Description: For study days in which an infusion of OMP-21M18 was administered, blood pressure readings include a reading pre-infusion, 15 minutes after the start of infusion, at the end of infusion, and 15 minutes post-infusion.
OMP-21M18 was administered at dosages of 0.5 mg/kg weekly to three subjects, 1.0 mg/kg weekly to three subjects, 2.5 mg/kg every two weeks to six subjects, 2.5 mg/kg weekly to six subjects, 5.0 mg/kg every two weeks to six subjects, 5.0 mg/kg weekly to three subjects, and 10.0 mg/kg every two weeks to six subjects. According to the study protocol, the administration period was nine weeks, unless a subject was removed from the study due to a dose limiting toxicity. Baseline blood pressure readings were taken just prior to administration of the first dosage. Toxicities were assessed using the National Institute of Health's Common Toxicity Criteria for Adverse Events (CTCAE) version 3.0. During the study, subjects were assessed for dose limiting toxicities from the time of the first dose through 7 days after administration of the fourth dose (Days 0-28).

[2] = Phase 1 dose escalation study of OMP-21M18 in subjects with solid tumors: incidence of hypertension (CTCAE v3.0); format: in vivo; conditions: for Grade 3 Hypertension / Grade 4 Hypertension: number of patients
Description: Thirty-three subjects with advanced solid tumors initiated treatment with OMP-21M18 in a Phase I clinical trial. The trial was designed to determine the maximum tolerated dose (MTD), safety, pharmacokinetics, immunogenicity, and preliminary efficacy of OMP-21M18 in subjects with advanced solid tumors. All subjects had histologically confirmed malignancies that were metastatic or unresectable and had received extensive treatment for their cancer.
OMP-21M18 was prepared for use at a concentration of 10 mg/mL in a solution of 50 mM histidine, 100 mM sodium chloride, 45 mM sucrose, and 0.01% (w/v) Polysorbate 20, with the pH adjusted to 6.0. Once prepared, OMP-21M18 was stored as 20 mL aliquots in 25-cc vials.

[3] = Subject 1 on OMP-21M18 0.5 mg/kg weekly, Lotensin, Norvasc and hydrochlorothiazide together
[4] = Subject 2 on OMP-21M18 1 mg/kg, labetalol 400 bid, lasix 20 mg qd, Norvasc 10 mg qd, Prinzide 20/25 mg together, 7 additional OMP-21M18 doses without hypertension
[5] = 2.5 mg/kg every 2 weeks, 6 patients
[6] = 5.0 mg/kg every 2 weeks, 6 patients
[7] = 10.0 mg/kg every 2 weeks, 6 patients, one patient had both Grade 3 and Grade 4

Molecule: CCOC(=O)[C@H](CCc1ccccc1)N[C@H]1CCc2ccccc2N(CC(=O)O)C1=O [Lotensin®, benazepril hydrochloride, reference compound]
- blood pressure control by anti-hypertensive regimen [1, 3]: adequate blood pressure control

Molecule: CCOC(=O)C1=C(COCCN)NC(C)=C(C(=O)OC)C1c1ccccc1Cl (centres unmarked) [Norvasc®, amlodipine besylate, reference compound]
- blood pressure control by anti-hypertensive regimen [1, 3]: adequate blood pressure control
- blood pressure control by anti-hypertensive regimen [1, 4]: controlled their blood pressure
- adverse event leading to discontinuation of anti-hypertensive ([1]; Subject 3 on OMP-21M18 2.5 mg/kg, Norvasc 5 mg qd, discontinued Day 141): ankle edema

Molecule: NS(=O)(=O)c1cc2c(cc1Cl)NCNS2(=O)=O [hydrochlorothiazide, reference compound]
- blood pressure control by anti-hypertensive regimen [1, 3]: adequate blood pressure control

Molecule: CC(CCc1ccccc1)NCC(O)c1ccc(O)c(C(N)=O)c1 (centres unmarked) [labetalol, reference compound]
- blood pressure control by anti-hypertensive regimen [1, 4]: controlled their blood pressure

Molecule: NS(=O)(=O)c1cc(C(=O)O)c(NCc2ccco2)cc1Cl [lasix, reference compound]
- blood pressure control by anti-hypertensive regimen [1, 4]: controlled their blood pressure

B1: OMP-21M18: humanized anti-DLL4 antibody encoded by the plasmid with ATCC deposit number PTA-8425 (antibody, V domains shown)
VH: QVQLVQSGAEVKKPGASVKISCKASGYSFTAYYIHWVKQAPGQGLEWIGYISSYNGATNYNQKFKGRVTFTTDTSTSTAYMELRSLRSDDTAVYYCARDYDYDVGMDYWGQGTLVTVSS
VL: DIVMTQSPDSLAVSLGERATISCRASESVDNYGISFMKWFQQKPGQPPKLLIYAASNQGSGVPDRFSGSGSGTDFTLTISSLQAEDVAVYYCQQSKEVPWTFGGGTKVEIK
modifications: Heavy chain variable region, H7; Light chain variable region
- Total Incidence of Hypertension ([2]; 0.5 mg/kg weekly, 3 patients): 1/3
- Grade 3 Hypertension ([2]; 0.5 mg/kg weekly, 3 patients): 1
- Grade 4 Hypertension ([2]; 0.5 mg/kg weekly, 3 patients): 0
- Total Incidence of Hypertension ([2]; 1.0 mg/kg weekly, 3 patients): 1/3
- Grade 3 Hypertension ([2]; 1.0 mg/kg weekly, 3 patients): 1
- Grade 4 Hypertension ([2]; 1.0 mg/kg weekly, 3 patients): 0
- Total Incidence of Hypertension [2, 5]: 1/6
- Grade 3 Hypertension [2, 5]: 1
- Grade 4 Hypertension [2, 5]: 0
- Total Incidence of Hypertension ([2]; 2.5 mg/kg weekly, 6 patients): 2/6
- Grade 3 Hypertension ([2]; 2.5 mg/kg weekly, 6 patients): 2
- Grade 4 Hypertension ([2]; 2.5 mg/kg weekly, 6 patients): 0
- Total Incidence of Hypertension [2, 6]: 1/3
- Grade 3 Hypertension [2, 6]: 1
- Grade 4 Hypertension [2, 6]: 0
- Total Incidence of Hypertension ([2]; 5.0 mg/kg weekly, 3 patients): 0/3
- Grade 3 Hypertension ([2]; 5.0 mg/kg weekly, 3 patients): 0
- Grade 4 Hypertension ([2]; 5.0 mg/kg weekly, 3 patients): 0
- subjects who experienced Grade 3 or Grade 4 hypertension ([2]; 10.0 mg/kg dose level): 6 of 6
- Total Incidence of Hypertension ([2]; 10.0 mg/kg every 2 weeks, 6 patients): 6/6
- Grade 3 Hypertension [2, 7]: 6
- Grade 4 Hypertension [2, 7]: 1
- subjects whose hypertension was labeled grade three ([2]; of the twelve subjects with hypertension, asymptomatic, controlled with oral anti-hypertensive, treatment continued): eleven
- subjects for whom hypertension was reported during the course of therapy ([2]; of thirty-three subjects, all dose cohorts): twelve
- patients with hypertension reported ([2]; thirty-three subjects, all dose cohorts): 36%
- blood pressure, highest reported ([1]; Subject 1, 0.5 mg/kg weekly, Day 21, 15 minutes post infusion, baseline 135/73, on Lotensin 30 mg qd): 199/92
- blood pressure ([1]; Subject 1, 0.5 mg/kg weekly, Day 24, baseline 135/73, on Lotensin 30 mg qd): 183/89
- blood pressure ([1]; Subject 1, 0.5 mg/kg weekly, Day 32, on Lotensin 40 mg qd and Norvasc 5 mg qd): 177/88
- blood pressure ([1]; Subject 1, 0.5 mg/kg weekly, Day 41, on Lotensin 40 mg qd and Norvasc 10 mg qd): 160/85
- blood pressure ([1]; Subject 2, 1 mg/kg weekly, Day 7 (high), baseline 141/85, on lisinopril 10 mg qd): 177/93
- blood pressure ([1]; Subject 2, 1 mg/kg weekly, Day 14, on lisinopril plus irbesartan/hydrochlorothiazide, study drug dose not administered): 173/110
- blood pressure ([1]; Subject 2, 1 mg/kg weekly, Day 21, on labetalol 100 mg bid and Prinzide 10/12.5 qd): 164/112
- blood pressure ([1]; Subject 2, 1 mg/kg weekly, Day 55, on labetalol 400 mg bid and Prinzide 10/12.5 qd): 163/91
- blood pressure ([1]; Subject 2, 1 mg/kg, Day 84, on labetalol 400 mg bid and Prinzide 20/25 qd, OMP-21M18 dose not administered): 167/102
- blood pressure ([1]; Subject 3, 2.5 mg/kg weekly, Day 21, baseline 96/54, no prior history of hypertension): 159/90
- blood pressure ([1]; Subject 3, 2.5 mg/kg, Day 112, on Dyazide 1 po qd): 152/77
- blood pressure ([1]; Subject 3, 2.5 mg/kg, Day 146, on lisinopril 20 mg bid): 143/85
- blood pressure ([1]; Subject 4, 2.5 mg/kg cohort, Day 14, baseline 118/73, on dyazide and lisinopril, increase not related to study drug according to the Investigator): 153/79
- blood pressure ([1]; Subject 5, 10 mg/kg once every other week, Day 9, baseline 130/90): 160/90
- blood pressure ([1]; Subject 5, 10 mg/kg once every other week, Day 26, at home, on lisinopril 5 mg qd): 170/90
- blood pressure ([1]; Subject 5, 10 mg/kg once every other week, Day 62, on lisinopril 10 mg bid): 190/120
- blood pressure ([1]; Subject 5, 10 mg/kg once every other week, Day 65, on lozartan 25 mg, bisoprolol 2.5 mg, amlodipine 5 mg qd): 170/106
- blood pressure ([1]; Subject 6, 10 mg/kg cohort, Day 28, single reading, on enalapril): 150/90
- blood pressure ([1]; Subject 6, 10 mg/kg cohort, subsequent reading after Day 28, on enalapril): 150/90
- blood pressure ([1]; Subject 6, 10 mg/kg cohort, subsequent to start of enalapril 10 mg bid on Day 9, baseline 125/90): 140/90
- blood pressure ([1]; Subject 7, 10 mg/kg once every other week, Day 9, baseline 135/90, on enalapril 5 mg bid): 170/90
- blood pressure ([1]; Subject 7, 10 mg/kg once every other week, Day 56, on enalapril 10 mg bid): 155/90
- blood pressure ([1]; Subject 8, 10 mg/kg once every other week, Day 17, home reading, baseline 140/90, captopril 25 mg as needed): 160/90
- blood pressure ([1]; Subject 8, 10 mg/kg once every other week, Day 22, in the clinic, on captopril 12.5 qd): 130/80
- blood pressure ([1]; Subject 8, 10 mg/kg once every other week, Days 23-28, at home, on captopril 12.5 qd): 150/90
- blood pressure ([1]; Subject 9, 10 mg/kg once every other week, Day 7, on nifedipine 20 mg qd): 130/80
- blood pressure ([1]; Subject 9, 10 mg/kg once every other week, Day 74, on nifedipine 20 mg qd, then discontinued): 115/75
